Test results as given in patent US10502741B2, “Means and methods for detecting activated MALT1” (Helmholtz Zentrum München Deutsches Forschungszentrum für …, priority 2014, dated 2019).
The star is where a group is joined. BODIPY(FL) = CC1=CC(C)=[N+]2C1=Cc1ccc(CCC(=O)*)n1[B-]2(F)F; AOMK = acyloxymethyl ketone C-terminal warhead; alkyne = not defined here

Legend:
[1] = target: cathepsin B (Homo sapiens, UniProt P07858); assay: Labeling with diagnostic inhibitor in cell extracts (gel-based, fluorescence scan): about 30 kDa cathepsin B band; design: endogenous in cells; host or cells: Jurkat T cells; HBL1 and other DLBCL cell lines; conditions: Jurkat T cells, whole cell extract
Description: (§1) Jurkat T cells were cultured in standard RPMI medium containing 10% FCS, 100 U/ml Penicillin/Streptomycin and 2 mM Glutamin. DNA transfection of 6 μg DNA in 8×10^6 Jurkat T cells was performed by electroporation in a GenePulser Xcell (BioRad) with a 220 Volt pulse. For siRNA experiments, Jurkat T cells were transfected with 100 nM siRNA and Atufect transfection reagent (Silence Therapeutics, Berlin). Jurkat T cells were stimulated either with 200 ng/ml PMA (phorbol 12-myristate 13-acetate) and 300 ng/ml Ionomycin (both Calbiochem) or CD3/CD28 antibody co-ligation (human CD3: 1 μg/ml; human CD28: 4 μg/ml; mouse IgG1: 2 μg/ml; mouse IgG2a: 2 μg/ml; BD Biosciences). DLBCL cell lines (HBL1, TMD8, OCI-Ly3, U2932, RIVA, BJAB, Su-DHL-4 and Su-DHL-6) were cultured in standard RPMI medium containing 20% FCS, 100 U/ml Penicillin/Streptomycin and 2 mM Glutamin. OCI-Ly10 cell line was cultured in IMDM containing 20% human serum, 100 U/ml Penicillin/Streptomycin, 2 U/ml heparine, 50 μM β-mercaptoethanol. Inhibitors 10 μM (z-VRPR-FMK, Mepazine, Thioridazine, CA-074Me) were added to the cells in media for 1 h, prior to stimulation and labeling with diagnostic MALT1 inhibitor.
(§2) Jurkat T cells (1-2×10^7), primary human PBMCs or primary human T cells (0.25 or 1×10^7) were lysed in 150 μl co-IP buffer without protease inhibitors. DLBCL (3×10^7) were lysed in 250 μl buffer. After centrifugation (14000 rpm, 10 min, 4° C.), 100 μl extract (DLBCL: 200 μl) was stained with probe 5 or probe 6 (3 μM end) for 50 min at 29° C., mixed with 4× loading dye and boiled.

[2] = target: T1, active MALT1 (Homo sapiens, UniProt Q9UDY8); assay: Labeling with diagnostic inhibitor in cell extracts (gel-based, fluorescence scan): active MALT1 band
T1 construct: endogenous in cells; host or cells: Jurkat T cells, primary human PBMCs and T cells, DLBCL cell lines (HBL1, TMD8, OCI-Ly3, OCI-Ly10, U2932, RIVA, BJAB, Su-DHL-4, Su-DHL-6)
T1 sequence (Q9UDY8 1-824): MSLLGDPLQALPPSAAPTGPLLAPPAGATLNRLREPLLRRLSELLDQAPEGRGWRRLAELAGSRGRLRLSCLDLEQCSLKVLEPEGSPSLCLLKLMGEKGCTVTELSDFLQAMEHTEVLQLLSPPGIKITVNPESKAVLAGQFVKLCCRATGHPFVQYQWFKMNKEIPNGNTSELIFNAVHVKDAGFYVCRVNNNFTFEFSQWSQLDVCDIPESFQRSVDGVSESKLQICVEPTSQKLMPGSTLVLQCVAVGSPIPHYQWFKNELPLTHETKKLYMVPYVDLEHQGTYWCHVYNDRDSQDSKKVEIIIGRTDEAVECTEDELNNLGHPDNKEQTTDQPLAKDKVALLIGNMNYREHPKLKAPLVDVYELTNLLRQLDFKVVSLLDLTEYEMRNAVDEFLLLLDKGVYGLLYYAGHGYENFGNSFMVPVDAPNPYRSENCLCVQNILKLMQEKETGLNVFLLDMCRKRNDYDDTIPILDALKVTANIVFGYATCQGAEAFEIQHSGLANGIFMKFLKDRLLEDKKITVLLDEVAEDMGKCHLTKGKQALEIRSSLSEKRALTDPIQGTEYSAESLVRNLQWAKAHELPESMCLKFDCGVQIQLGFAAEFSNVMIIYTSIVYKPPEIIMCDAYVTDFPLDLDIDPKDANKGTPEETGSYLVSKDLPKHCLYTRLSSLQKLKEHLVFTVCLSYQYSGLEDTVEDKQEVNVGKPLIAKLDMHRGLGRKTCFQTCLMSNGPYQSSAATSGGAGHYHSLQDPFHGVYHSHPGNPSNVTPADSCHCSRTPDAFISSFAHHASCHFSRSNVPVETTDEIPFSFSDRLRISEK
Description: as §1, §2

[3] = target: T1, active MALT1; assay: as above; conditions: 2×10^6 primary human T cells, 3 μM probe
[4] = target: T2, FLAG-MALT1 wt (Homo sapiens, UniProt Q9UDY8); assay: Labeling with diagnostic MALT1 inhibitor after immunoprecipitation (gel-based, fluorescence scan); type: binding; conditions: probe pre-clicked to TAMRA, after FLAG immunoprecipitation in Jurkat T cells
T2 construct: expressed in transfected cells; host or cells: Jurkat T cells (pEF vector, electroporation)
T2 sequence (Q9UDY8 1-813 isoform Q9UDY8-2): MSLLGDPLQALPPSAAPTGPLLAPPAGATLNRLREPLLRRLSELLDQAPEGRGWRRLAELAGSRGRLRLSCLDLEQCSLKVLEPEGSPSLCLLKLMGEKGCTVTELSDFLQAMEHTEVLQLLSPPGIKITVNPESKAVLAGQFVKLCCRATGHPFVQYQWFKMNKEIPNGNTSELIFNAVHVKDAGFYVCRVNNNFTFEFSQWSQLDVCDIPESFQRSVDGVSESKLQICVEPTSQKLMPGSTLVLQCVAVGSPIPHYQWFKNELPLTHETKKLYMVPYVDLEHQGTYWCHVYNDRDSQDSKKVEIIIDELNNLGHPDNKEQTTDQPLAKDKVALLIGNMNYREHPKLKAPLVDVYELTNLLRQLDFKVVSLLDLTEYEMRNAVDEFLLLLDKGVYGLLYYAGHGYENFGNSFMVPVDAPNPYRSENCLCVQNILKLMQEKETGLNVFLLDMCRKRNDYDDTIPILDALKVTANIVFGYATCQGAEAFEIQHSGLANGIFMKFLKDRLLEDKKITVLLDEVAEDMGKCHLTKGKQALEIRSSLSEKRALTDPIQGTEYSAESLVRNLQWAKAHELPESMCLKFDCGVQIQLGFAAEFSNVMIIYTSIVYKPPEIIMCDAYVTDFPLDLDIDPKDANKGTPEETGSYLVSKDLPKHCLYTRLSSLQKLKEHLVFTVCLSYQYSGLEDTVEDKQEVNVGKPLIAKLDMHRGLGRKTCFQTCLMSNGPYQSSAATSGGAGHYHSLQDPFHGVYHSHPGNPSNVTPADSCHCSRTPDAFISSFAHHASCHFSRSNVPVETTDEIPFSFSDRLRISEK
Description: Jurkat T cells, transfected with active FLAG-[…] wt or active site mutant C464A, were stained after lysis and IP with probe 2, pre-clicked to TAMRA. Analysis was done by fluorescence staining.
Copper I-catalysed click chemistry reaction was performed in 50 μl 50 mM hepes with 10 μM alkyne-LRSR-AOMK (probe 2) and 10 μM N-TAMRA-3-aminopropylazide or 100 μM N-FITC-3-aminopropylazide. Reducing agent sodium ascorbate (0.5 mM), TBTA (50 μM) and CuSO4 (1 mM) were added to the reaction and incubated for 45 min at RT.
Cells were lysed in 500 μl co-IP buffer without protease inhibitors (25 mM hepes pH 7.5, 150 mM NaCl, 0.2% NP-40, 10% glycerol, 1 mM DTT, 10 mM sodium fluoride, 8 mM (3-glycerophosphate and 300 μM sodium vanadate), centrifuged (14000 rpm, 10 min, 4° C.) and overexpressed FLAG MALT1 was immunoprecipitated by FLAG (M2) antibody for 3 hours at 4° C. PGS was added for 1 h at 4° C., precipitate was washed 2× with co-IP buffer and 1× with 50 mM hepes pH 7.4. Precipitated MALT1 was incubated with 0.3 μM pre-clicked probe 2 (in 20 μl 50 mM hepes pH 7.4) for 50 min at 29° C., mixed with 4× loading dye and boiled for 3 min. After protein separation by SDS PAGE, staining with diagnostic inhibitor was detected by Typhoon Fluorescence Scanner (FITC laser 488 nm/filter 526 SP; TAMRA laser 532 nm/filter 580 BP).

Question: How did the “cathepsin B labeling compared with probe 5” value [1] turn out when “(BODIPY-FL)-LRSR-AOMK ({BODIPY(FL)}-LRSR-{AOMK}) [probe 6]” was run?
Answer: cathepsin B labeling was even reduced

Question: What about the “active MALT1 signal in lymphoma whole cell extracts” value ([2]; ABC DLBCL cells (HBL1 for probe 6)) of the same substance?
Answer: weakly labeled active MALT1

Question: What about the “active MALT1 labeling compared with probe 5” value ([2]; Jurkat T cells, whole cell extract) of the same substance?
Answer: slightly more effective in active MALT1 labeling

Question: And the “MALT1-probe complex in ABC DLBCL cells” value ([2]; panel of ABC DLBCL pretreated with CA-074Me, whole cell lysates, no stimulation)?
Answer: detected even in the absence of any stimulation

Question: And the “MALT1-probe labeling in GCB DLBCL cells” value ([2]; panel of GCB DLBCL pretreated with CA-074Me, whole cell lysates)?
Answer: all negative

Question: And the “active MALT1 signal in primary human T cells, gel-based” value [3]?
Answer: weak active MALT1 signal

Question: “alkyne-LRSR-AOMK (alkyne-LRSR-{AOMK}; not fully specified; reading uncertain) [probe 2, used pre-clicked to TAMRA]” was tested. Which “labeling of overexpressed FLAG-MALT1 wt versus catalytic inactive mutant” value [4] did it give?
Answer: FLAG-MALT1 wt but not the catalytic inactive mutant was detected
